Results taken from US20230303649A1 (published 2023).
Where a chain is given by its changes, count along the chain named. Values belong to the binder of their own block, whether it stands above or below them.

Target: T1, IL-2R on human primary T cells (human, UniProt P01589 22-272; P14784 27-551; P31785 23-369)
T1 sequence (looked up) 1: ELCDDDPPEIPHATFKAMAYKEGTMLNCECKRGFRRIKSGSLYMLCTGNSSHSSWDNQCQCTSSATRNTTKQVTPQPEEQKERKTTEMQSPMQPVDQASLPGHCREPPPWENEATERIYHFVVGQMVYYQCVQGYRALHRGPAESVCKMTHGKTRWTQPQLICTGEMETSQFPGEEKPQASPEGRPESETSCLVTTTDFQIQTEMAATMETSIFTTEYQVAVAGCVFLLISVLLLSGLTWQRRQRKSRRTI
T1 sequence (looked up) 2: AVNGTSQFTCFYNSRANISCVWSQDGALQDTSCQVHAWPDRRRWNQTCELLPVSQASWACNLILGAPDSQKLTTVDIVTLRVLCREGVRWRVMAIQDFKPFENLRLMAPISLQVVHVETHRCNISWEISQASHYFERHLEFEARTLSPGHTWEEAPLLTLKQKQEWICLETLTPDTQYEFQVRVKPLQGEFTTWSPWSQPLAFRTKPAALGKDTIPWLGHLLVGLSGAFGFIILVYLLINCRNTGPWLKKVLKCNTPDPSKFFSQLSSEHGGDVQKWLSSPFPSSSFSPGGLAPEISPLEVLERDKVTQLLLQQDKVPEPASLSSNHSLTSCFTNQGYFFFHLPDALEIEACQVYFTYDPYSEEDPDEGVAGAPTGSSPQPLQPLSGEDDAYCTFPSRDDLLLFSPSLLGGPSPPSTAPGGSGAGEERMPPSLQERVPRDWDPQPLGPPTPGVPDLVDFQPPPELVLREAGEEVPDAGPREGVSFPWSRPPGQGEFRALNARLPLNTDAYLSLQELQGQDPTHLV
T1 sequence (looked up) 3: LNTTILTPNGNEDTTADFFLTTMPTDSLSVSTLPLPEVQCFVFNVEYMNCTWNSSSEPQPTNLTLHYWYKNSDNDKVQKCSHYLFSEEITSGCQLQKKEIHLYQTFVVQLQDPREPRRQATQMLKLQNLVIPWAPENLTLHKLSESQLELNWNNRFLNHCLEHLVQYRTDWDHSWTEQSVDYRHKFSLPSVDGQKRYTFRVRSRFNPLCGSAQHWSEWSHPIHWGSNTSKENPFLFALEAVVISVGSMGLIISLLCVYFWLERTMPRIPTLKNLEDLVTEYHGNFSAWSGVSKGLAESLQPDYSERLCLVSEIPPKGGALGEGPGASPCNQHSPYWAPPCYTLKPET
Assay: cell-based or functional assay

CD4 conv EC50 (nM), STAT5 phosphorylation: 2290 nM | CD8 EC50 (nM), STAT5 phosphorylation: 10000 nM | CD8 naïve EC50 (nM), STAT5 phosphorylation: 10000 nM | Treg EC50 (nM), STAT5 phosphorylation: 0.43 nM
B1: SEQ ID NO 25 (ligand)
chain: APTSSSTKKTQLQLEHLLLDLQMILNGINNHKNPRLTRMLTFKFYMPKKATELKHLQCLEEELKPLEEALRLAPSKNFHLRPRDLISNINVIVLELKGSETTFMCEYADETATIVEFLNRWITFSTSIISTLT

CD4 conv EC50 (nM), STAT5 phosphorylation: 7000 nM | CD8 EC50 (nM), STAT5 phosphorylation: 10000 nM | CD8 naïve EC50 (nM), STAT5 phosphorylation: 10000 nM | Treg EC50 (nM), STAT5 phosphorylation: 17 nM
B2: SEQ ID NO 31 (ligand)
chain: B1 chain with H31Y, R35K, R71N, N88D, T126Q

CD4 conv EC50 (nM), STAT5 phosphorylation: 2640 nM | CD8 EC50 (nM), STAT5 phosphorylation: 4270 nM | CD8 naïve EC50 (nM), STAT5 phosphorylation: 4270 nM | Treg EC50 (nM), STAT5 phosphorylation: 0.67 nM
B3: SEQ ID NO 26 (ligand)
chain: B1 chain with A69V, N88D, T126Q

CD4 conv EC50 (nM), STAT5 phosphorylation: 4000 nM | CD8 EC50 (nM), STAT5 phosphorylation: 10000 nM | CD8 naïve EC50 (nM), STAT5 phosphorylation: 10000 nM | Treg EC50 (nM), STAT5 phosphorylation: 5.94 nM
B4: SEQ ID NO 27 (ligand)
chain: B1 chain with A69V

CD8 EC50 (nM), STAT5 phosphorylation: 650 nM | Treg EC50 (nM), STAT5 phosphorylation: 2.55 nM
B5: SEQ ID NO 10 (ligand)
chain: B1 chain with N29S, T37A, K48E, N88D, I89V

CD4 conv EC50 (nM), STAT5 phosphorylation: 4000 nM | CD8 EC50 (nM), STAT5 phosphorylation: 1000 nM | CD8 naïve EC50 (nM), STAT5 phosphorylation: 1000 nM | Treg EC50 (nM), STAT5 phosphorylation: 2.53 nM
B6: SEQ ID NO 33 (ligand)
chain: B1 chain with H31Y, R35K, A69V, R71N, N88D, T126Q

CD4 conv EC50 (nM), STAT5 phosphorylation: 1000 nM | CD8 EC50 (nM), STAT5 phosphorylation: 4000 nM | CD8 naïve EC50 (nM), STAT5 phosphorylation: 4000 nM | Treg EC50 (nM), STAT5 phosphorylation: 1.02 nM
B7: SEQ ID NO 28 (ligand)
chain: B1 chain with A69V, R71N, N88D, T126Q

CD4 conv EC50 (nM), STAT5 phosphorylation: 2290 nM | CD8 EC50 (nM), STAT5 phosphorylation: 10000 nM | CD8 naïve EC50 (nM), STAT5 phosphorylation: 10000 nM | Treg EC50 (nM), STAT5 phosphorylation: 9.32 nM
B8: SEQ ID NO 29 (ligand)
chain: B1 chain with A69V, R71N

CD4 conv EC50 (nM), STAT5 phosphorylation: 7000 nM | CD8 EC50 (nM), STAT5 phosphorylation: 10000 nM | CD8 naïve EC50 (nM), STAT5 phosphorylation: 10000 nM | Treg EC50 (nM), STAT5 phosphorylation: 94.9 nM
B9: SEQ ID NO 32 (ligand)
chain: B1 chain with H31Y, R35K, R71N, P74Q, N88D, T126Q

CD4 conv EC50 (nM), STAT5 phosphorylation: 7000 nM | CD8 EC50 (nM), STAT5 phosphorylation: 10000 nM | CD8 naïve EC50 (nM), STAT5 phosphorylation: 10000 nM | Treg EC50 (nM), STAT5 phosphorylation: 10.7 nM
B10: SEQ ID NO 30 (ligand)
chain: B1 chain with R35K, R71N, N88D, T126Q
